Measured values reported in the supplement of paper PMC9170038.

System: MS2 coat protein
Assay: apparent KD of MS2 coat protein; designed switch direction (-1 OFF switch, 1 ON switch): -1; higher = weaker reporter binding
Method in brief: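 Designed RNA switches with common flanks were made on Illumina chips by stalled E. coli RNA polymerase. Titration with SNAP-549-labelled MS2 coat protein doubled from 0.7 or 1.5 nM up to 3 µM. Apparent KD is each design's median over clusters after curve-fitting normalised fluorescence.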

[1] = Eterna round: R95, input ligand: FMN 200 uM
[2] = Eterna round: R95, input ligand: microRNA oligo, concentration not stated
[3] = Eterna round: R95, input ligand: none
[4] = input ligand: microRNA oligo, concentration not stated

| Sequence | apparent KD of MS2 coat protein [1] | apparent KD of MS2 coat protein [2] | apparent KD of MS2 coat protein [3] | apparent KD of MS2 coat protein (input ligand: FMN 200 uM) | apparent KD of MS2 coat protein [4] | apparent KD of MS2 coat protein (input ligand: none) |
| --- | --- | --- | --- | --- | --- | --- |
| UUAUUUCAAGCAAGAUCCUACAUGAGGAUCACCCAUGUGCUCGUCUUAUAAGGUACAGUGACGAAAGUCACAGUACC [Sensor 3, v1 - 000] (puzzle: Sensor v3, turn-off variant 1) | 173 nM | 152 nM | 202 nM | – | – | – |
| UCGCUGCGAGGAUAUACGUUUGCGCGUUUUCGUUUGCGCGUACAUGAGGAUCACCCAUGUAGAAGGCGCGCGGC [Apr-15 SS2-11] (puzzle: Exclusion 2) | – | 12.2 nM | – | – | – | – |
| GCCGGUCAUGUAGGAUAUGGCCGGCGGUGCCGGCCAGAAGGACAUGAGGAUCACCCAUGUGCCGGCCUUUGGCCGGCGCCCGGC (Eterna round: R96, puzzle: Exclusion NG 1) | – | – | – | 8.65 nM | 11.2 nM | 18.6 nM |
| UUCACGUCAGGAUAUCCAAAGUUCCGAAAUAACGGUACUUUGGAGAAGGGACAUGAGGAUCACCCAUGUCCUCG [LRO-Excl4-17-Nando 22 Mod] (Eterna round: R97, puzzle: Exclusion 4) | – | – | – | 40.3 nM | – | 22 nM |
| UUUUUACAUGAGGAUCACCCAUGUCAGGAUAUCAUUAUAUUUUAUUAUUUUAUUUAUAUGAGAAGGGACUAUUA [My solution] (Eterna round: R96, puzzle: Exclusion 1) | – | – | – | 127 nM | 79.2 nM | 105 nM |
| AUUAAACAUGUAGGAUAUGCGUGGCGAAGCUAUGCAGAAGGACAUGAGGAUCACCCAUGUAAGAGCGUCUGCGUACAGAUGCAA [Mat - Exclusion NG 1 - Mod of JL - D85] (Eterna round: R96, puzzle: Exclusion NG 1) | – | – | – | 563 nM | 36.6 nM | 61.5 nM |
| GGUGGACAUGAGGAUCACCCAUGUGAGGAUAUCGGCCGGUGCGUGGUGGCUGGCGUCUCGAGAAGGCACAUAGU [Exclusion 1 V68] (puzzle: Exclusion 1) | – | 74.9 nM | – | – | – | – |
| GUUGUUUAUGUAGGAUAUGCCUGGCGUGCCUUUGCAGAAGGACAUGAGGAUCACCCAUGUAACAUGAGGCUCACCCAUGUCGCC [salish99_ExNG1_r04_108] (Eterna round: R96, puzzle: Exclusion NG 1) | – | – | – | 220 nM | 72.6 nM | 160 nM |
| CUUAGACAUGAGGAUCACCCAUGUGAGGAUAUGAUGCGAAUAAAGAAAGAAGAAAGCAUCAGAAGGCACAUAUG [Fiskers Ex 1 - 1] (puzzle: Exclusion 1) | 111 nM | 121 nM | 97.9 nM | – | – | – |
| CGCUGGUGAGGAUAUGGGUGUGGUUACAUGAGGAUCACCCAUGUGGUGUCGCAUGUGGGUCCAGAAGGCGCGGGUG [-25.2, -23.4 kcal, 17% A] (Eterna round: R97, puzzle: Exclusion 5) | – | – | – | 856 nM | – | 585 nM |
| CCGGAAUAGCAGGAUAUAGGAGUCGAUAGACACCUAGAAGGGUUGACAUGAGGAUCACCCAUGUGUCCUACCGG [Fiskers Ex 6 - 82] (puzzle: Exclusion 6) | 322 nM | 247 nM | 519 nM | – | – | – |
| CUGAAAGACGAAGGAUAUCCAGGCACCGGAGUAGGAGAAGGUCGUCCGGGUGUCCUAGAACUUGAGGAUCACCCAAGUAGAAGA [Mutated MS2 EX1.5] (Eterna round: R96, puzzle: Exclusion NG 1) | – | – | – | 34.4 nM | 36.9 nM | 24.7 nM |
| GGAUCGAGUGUGAGGAUAUGCUGGUCCUUGGAUCAGCAGAAGGCACAUGAGGAUCACCCAUGUGAUCAAGAUCC [Eli bmx4 4.76] (Eterna round: R97, puzzle: Brourd's mod of Exclusion 4) | – | – | – | 50.9 nM | – | 712 nM |
| UUUUGGCAAGCGAGAUCCCACAUGAGGAUCACCCAUGUUGACCAUGGUUUCCAUGGUCAUUUUGCUCGUCUUGUGUG [jl TITIN mod 1] (Eterna round: R97, puzzle: Sensor, turn-off variant 1) | – | – | – | 31.3 nM | – | 31.8 nM |
